B1: Golgin-45 (Homo sapiens), Q9H2G9 (parent)
chain: MTTKNLETKVTVTSSPIRGAGDGMETEEPPKSVEVTSGVQSRKHHSLQSPWKKAVPSESPGVLQLGKMLTEKAMEVKAVRILVPKAAITHDIPNKNTKVKSLGHHKGEFLGQSEGVIEPNKELSEVKNVLEKLKNSERRLLQDKEGLSNQLRVQTEVNRELKKLLVASVGDDLQYHFERLAREKNQLILENEALGRNTAQLSEQLERMSIQCDVWRSKFLASRVMADELTNSRAALQRQNRDAHGAIQDLLSEREQFRQEMIATQKLLEELLVSLQWGREQTYSPSVQPHSTAELALTNHKLAKAVNSHLLGNVGINNQKKIPSTVEFCSTPAEKMAETVLRILDPVTCKESSPDNPFFESSPTTLLATKKNIGRFHPYTRYENITFNCCNHCRGELIAL
partner: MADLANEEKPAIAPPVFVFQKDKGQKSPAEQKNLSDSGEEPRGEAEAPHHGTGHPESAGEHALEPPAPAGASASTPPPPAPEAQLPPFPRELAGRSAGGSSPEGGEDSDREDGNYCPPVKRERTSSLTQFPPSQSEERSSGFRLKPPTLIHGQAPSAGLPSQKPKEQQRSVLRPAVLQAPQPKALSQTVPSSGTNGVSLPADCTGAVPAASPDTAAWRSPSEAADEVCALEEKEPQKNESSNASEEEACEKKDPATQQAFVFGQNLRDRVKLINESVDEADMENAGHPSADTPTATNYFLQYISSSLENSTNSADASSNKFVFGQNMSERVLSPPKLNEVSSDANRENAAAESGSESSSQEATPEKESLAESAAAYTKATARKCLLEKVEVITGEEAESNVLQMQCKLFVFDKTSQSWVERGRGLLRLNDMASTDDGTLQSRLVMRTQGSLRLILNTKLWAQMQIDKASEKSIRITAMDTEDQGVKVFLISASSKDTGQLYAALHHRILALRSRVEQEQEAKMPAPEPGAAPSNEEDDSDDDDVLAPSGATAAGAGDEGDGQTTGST
B2: Cyclin-dependent kinase 4 (Homo sapiens), P11802 (parent)
chain: MATSRYEPVAEIGVGAYGTVYKARDPHSGHFVALKSVRVPNGGGGGGGLPISTVREVALLRRLEAFEHPNVVRLMDVCATSRTDREIKVTLVFEHVDQDLRTYLDKAPPPGLPAETIKDLMRQFLRGLDFLHANCIVHRDLKPENILVTSGGTVKLADFGLARIYSYQMALTPVVVTLWYRAPEVLLQSTYATPVDMWSVGCIFAEMFRRKPLFCGNSEADQLGKIFDLIGLPPEDDWPRDVSLPRGAFPPRGPRPVQSVVPEMEESGAQLLLEMLTFNPHKRISAFRALQHSYLHKDEGNPE
partner: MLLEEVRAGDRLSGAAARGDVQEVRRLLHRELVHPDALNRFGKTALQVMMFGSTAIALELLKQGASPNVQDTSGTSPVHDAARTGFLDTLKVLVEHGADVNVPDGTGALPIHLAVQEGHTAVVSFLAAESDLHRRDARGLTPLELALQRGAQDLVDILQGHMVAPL
B3: Septin-2 (Homo sapiens), Q15019 (parent)
chain: MSKQQPTQFINPETPGYVGFANLPNQVHRKSVKKGFEFTLMVVGESGLGKSTLINSLFLTDLYPERVIPGAAEKIERTVQIEASTVEIEERGVKLRLTVVDTPGYGDAINCRDCFKTIISYIDEQFERYLHDESGLNRRHIIDNRVHCCFYFISPFGHGLKPLDVAFMKAIHNKVNIVPVIAKADTLTLKERERLKKRILDEIEEHNIKIYHLPDAESDEDEDFKEQTRLLKASIPFSVVGSNQLIEAKGKKVRGRLYPWGVVEVENPEHNDFLKLRTMLITHMQDLQEVTQDLHYENFRSERLKRGGRKVENEDMNKDQILLEKEAELRRMQEMIARMQAQMQMQMQGGDGDGGALGHHV
partner: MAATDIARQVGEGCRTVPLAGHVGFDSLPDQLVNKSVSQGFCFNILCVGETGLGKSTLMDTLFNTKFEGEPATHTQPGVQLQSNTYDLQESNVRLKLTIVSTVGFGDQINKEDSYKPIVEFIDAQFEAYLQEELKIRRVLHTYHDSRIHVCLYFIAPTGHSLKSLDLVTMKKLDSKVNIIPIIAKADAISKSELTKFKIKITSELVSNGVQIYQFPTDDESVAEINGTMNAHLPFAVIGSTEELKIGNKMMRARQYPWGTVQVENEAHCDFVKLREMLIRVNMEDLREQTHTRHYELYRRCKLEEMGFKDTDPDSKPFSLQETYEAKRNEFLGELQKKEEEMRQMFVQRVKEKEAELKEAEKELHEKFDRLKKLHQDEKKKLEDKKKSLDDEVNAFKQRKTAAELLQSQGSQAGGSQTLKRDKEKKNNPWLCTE
B4: Filamin-binding LIM protein 1 (Homo sapiens), Q8WUP2 (parent)
chain: MASKPEKRVASSVFITLAPPRRDVAVAEEVRQAVCEARRGRPWEAPAPMKTPEAGLAGRPSPWTTPGRAAATVPAAPMQLFNGGCPPPPPVLDGEDVLPDLDLLPPPPPPPPVLLPSEEEAPAPMGASLIADLEQLHLSPPPPPPQAPAEGPSVQPGPLRPMEEELPPPPAEPVEKGASTDICAFCHKTVSPRELAVEAMKRQYHAQCFTCRTCRRQLAGQSFYQKDGRPLCEPCYQDTLERCGKCGEVVRDHIIRALGQAFHPSCFTCVTCARCIGDESFALGSQNEVYCLDDFYRKFAPVCSICENPIIPRDGKDAFKIECMGRNFHENCYRCEDCRILLSVEPTDQGCYPLNNHLFCKPCHVKRSAAGCC
partner: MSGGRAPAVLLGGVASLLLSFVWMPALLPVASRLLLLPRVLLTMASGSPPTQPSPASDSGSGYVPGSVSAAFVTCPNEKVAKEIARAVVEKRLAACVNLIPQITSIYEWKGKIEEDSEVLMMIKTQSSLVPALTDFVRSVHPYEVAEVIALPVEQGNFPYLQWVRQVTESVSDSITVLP
B5: 2'-5'-oligoadenylate synthase 2 (Homo sapiens), P29728 (parent)
chain: MGNGESQLSSVPAQKLGWFIQEYLKPYEECQTLIDEMVNTICDVLQEPEQFPLVQGVAIGGSYGRKTVLRGNSDGTLVLFFSDLKQFQDQKRSQRDILDKTGDKLKFCLFTKWLKNNFEIQKSLDGFTIQVFTKNQRISFEVLAAFNALSLNDNPSPWIYRELKRSLDKTNASPGEFAVCFTELQQKFFDNRPGKLKDLILLIKHWHQQCQKKIKDLPSLSPYALELLTVYAWEQGCRKDNFDIAEGVRTVLELIKCQEKLCIYWMVNYNFEDETIRNILLHQLQSARPVILDPVDPTNNVSGDKICWQWLKKEAQTWLTSPNLDNELPAPSWNVLPAPLFTTPGHLLDKFIKEFLQPNKCFLEQIDSAVNIIRTFLKENCFRQSTAKIQIVRGGSTAKGTALKTGSDADLVVFHNSLKSYTSQKNERHKIVKEIHEQLKAFWREKEEELEVSFEPPKWKAPRVLSFSLKSKVLNESVSFDVLPAFNALGQLSSGSTPSPEVYAGLIDLYKSSDLPGGEFSTCFTVLQRNFIRSRPTKLKDLIRLVKHWYKECERKLKPKGSLPPKYALELLTIYAWEQGSGVPDFDTAEGFRTVLELVTQYQQLCIFWKVNYNFEDETVRKFLLSQLQKTRPVILDPAEPTGDVGGGDRWCWHLLAKEAKEWLSSPCFKDGTGNPIPPWKVPTMQTPGSCGARIHPIVNEMFSSRSHRILNNNSKRNF

Variants of: B1
Details: with ranb3_human RANBP3, Q9H6Z4

effect of a mutation on the interaction | Variant
with no effect | H45R

Variants of: B2
Details: with cdn2d_human CDKN2D

effect of a mutation on the interaction | Variant
with no effect | S52N

Variants of: B3
Details: with sept6_human SEPTIN6, Q14141

effect of a mutation on the interaction | Variant
with no effect | H270D

Variants of: B4
Details: with cuta_human CUTA

effect of a mutation on the interaction | Variant
disrupting interaction strength | Y204C

Variants of: B5
Details: with clk3_human CLK3, P49761
Chain of clk3_human CLK3, P49761 (P49761 whole entry, looked up): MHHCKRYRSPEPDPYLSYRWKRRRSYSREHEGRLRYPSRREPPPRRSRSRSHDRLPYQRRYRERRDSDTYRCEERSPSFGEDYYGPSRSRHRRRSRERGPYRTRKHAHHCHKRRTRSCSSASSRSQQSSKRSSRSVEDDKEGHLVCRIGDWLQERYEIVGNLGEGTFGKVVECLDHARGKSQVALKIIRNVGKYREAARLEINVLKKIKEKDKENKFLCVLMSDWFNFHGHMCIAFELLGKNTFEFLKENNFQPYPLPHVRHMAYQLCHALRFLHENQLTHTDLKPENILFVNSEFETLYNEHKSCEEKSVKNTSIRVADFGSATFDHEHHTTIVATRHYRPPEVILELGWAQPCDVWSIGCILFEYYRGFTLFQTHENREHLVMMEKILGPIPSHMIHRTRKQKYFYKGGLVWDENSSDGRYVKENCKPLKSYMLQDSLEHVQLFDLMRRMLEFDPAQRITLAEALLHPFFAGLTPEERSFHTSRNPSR

effect of a mutation on the interaction | Variant
disrupting interaction strength | R535Q

— IntAct's records for PubMed 31515488
